Measured values from PMC3274613 (Bioorganic & medicinal chemistry letters, 2012).
Bridge positions count the residues as written; N and C are the ends. Square brackets hold non-standard residues; d marks the D form. Peptide text beside a SMILES is read from it.

Legend:
MC1 receptor = conditions: read-out: MC1 receptor binding affinity; M21 melanoma cells; cited from earlier work
αvβ3 integrin receptor = conditions: relative to RGD-Lys-(Arg11)CCMSH; cited from earlier work
B16/F1 melanoma cells = test: Cellular internalization in B16/F1 melanoma cells; format: cell-based, murine
in vivo = test: in vivo; design: species or system mice; conditions: C57, mouse, iv, total radioactivity
[1] = test system: B16/F1 melanoma-bearing C57 mice; test: in vivo; conditions: C57, mouse, iv, 2 h
[2] = mouse, in vivo
[3] = test system: B16/F1 melanoma-bearing C57 mouse; test: SPECT/CT melanoma imaging; format: in vivo; conditions: 2 h post-injection, approximately 6.7 MBq, one mouse
[4] = 0.037 MBq, Uptake ratio Tumor/Lung

Row | SMILES | IC50 (MC1 receptor) [pM] | Decrease of αvβ3 integrin receptor binding affinity on switch from RGD to RAD (αvβ3 integrin receptor) [fold] | Activity internalized (B16/F1 melanoma cells; 20 min post incubation) [%] | Activity internalized (B16/F1 melanoma cells; after 2 h incubation) [%] | tissue to tissue ratio at 0.5 h (in vivo; [4]) | tissue to tissue ratio at 2 h (in vivo; [4]) | tissue to tissue ratio at 4 h (in vivo; [4]) | tissue to tissue ratio at 24 h (in vivo; [4]) | tissue uptake dose at 2 h (in vivo; Bladder, percent injected dose) [%ID] | Bladder, percent injected dose [1] [%ID] | Blood, percent injected dose/gram [1] [%ID/g] | Bone, percent injected dose/gram [1] [%ID/g] | Heart, percent injected dose/gram [1] [%ID/g] | Kidneys, percent injected dose/gram [1] [%ID/g] | Lung, percent injected dose/gram [1] [%ID/g] | Muscle, percent injected dose/gram [1] [%ID/g] | Spleen, percent injected dose/gram [1] [%ID/g] | Stomach, percent injected dose/gram [1] [%ID/g] | Transformed to a more lipophilic metabolite in urine [2] [%] | Visualization of flank melanoma tumors by SPECT/CT [3]
1 | CC(C)[C@H](NC(=O)[C@@H]1CCCN1C(=O)[C@H](CCCNC(=N)N)NC(=O)[C@H](CS)NC(=O)[C@H](Cc1c[nH]c2ccccc12)NC(=O)[C@H](CCCNC(=N)N)NC(=O)[C@@H](Cc1ccccc1)NC(=O)[C@H](Cc1c[nH]cn1)NC(=O)[C@H](CCC(=O)O)NC(=O)[C@H](CS)NC(=O)[C@H](CS)NC(=O)[C@H](CCCCN)NC(=O)[C@@H]1CC(=O)N[C@@H](CCCNC(=N)N)C(=O)N[C@@H](C)C(=O)N[C@@H](CC(=O)O)C(=O)N[C@H](Cc2ccc(O)cc2)C(=O)N1)C(N)=O [RAD-Lys-(Arg^11)CCMSH] (RAD[dY]DKCCEH[dF]RWCRPV-NH2; lactam N-5; C-terminus assumed) | 300 | 248 |  |  |  |  |  |  |  |  |  |  |  |  |  |  |  |  |  | 
2 | CC(C)[C@H](NC(=O)[C@@H]1CCCN1C(=O)[C@H](CCCNC(=N)N)NC(=O)[C@H](CS)NC(=O)[C@H](Cc1c[nH]c2ccccc12)NC(=O)[C@H](CCCNC(=N)N)NC(=O)[C@@H](Cc1ccccc1)NC(=O)[C@H](Cc1c[nH]cn1)NC(=O)[C@H](CCC(=O)O)NC(=O)[C@H](CS)NC(=O)[C@H](CS)NC(=O)[C@H](CCCCN)NC(=O)[C@@H]1CC(=O)N[C@@H](CCCNC(=N)N)C(=O)N[C@@H](C)C(=O)N[C@@H](CC(=O)O)C(=O)N[C@H](Cc2ccc(O)cc2)C(=O)N1)C(N)=O [^99mTc-RAD-Lys-(Arg^11)CCMSH, metal not drawn] (RAD[dY]DKCCEH[dF]RWCRPV-NH2; lactam N-5; C-terminus assumed) |  |  | 59.20 ± 5.10 | 78.24 ± 1.13 | 4.26 | 22.9 | 39.1 | 31.9 | 69.54 ± 0.63 | 70.34 ± 3.28 | 0.44 ± 0.11 | 0.52 ± 0.31 | 0.30 ± 0.10 | 50.10 ± 18.56 | 0.78 ± 0.17 | 0.28 ± 0.30 | 0.50 ± 0.09 | 1.92 ± 0.24 | 18 | visualized clearly
